Article PMC10492923 (MedComm, 2023)

Target: T1, extracellular protease domain of wild-type ACE2 (human, UniProt Q9BYF1 19-615)
T1 construct: also called WT ACE2ecd; ACE2ecd
Assay: SPR
Conditions: both partners purified

T1 sequence (Q9BYF1 19-615): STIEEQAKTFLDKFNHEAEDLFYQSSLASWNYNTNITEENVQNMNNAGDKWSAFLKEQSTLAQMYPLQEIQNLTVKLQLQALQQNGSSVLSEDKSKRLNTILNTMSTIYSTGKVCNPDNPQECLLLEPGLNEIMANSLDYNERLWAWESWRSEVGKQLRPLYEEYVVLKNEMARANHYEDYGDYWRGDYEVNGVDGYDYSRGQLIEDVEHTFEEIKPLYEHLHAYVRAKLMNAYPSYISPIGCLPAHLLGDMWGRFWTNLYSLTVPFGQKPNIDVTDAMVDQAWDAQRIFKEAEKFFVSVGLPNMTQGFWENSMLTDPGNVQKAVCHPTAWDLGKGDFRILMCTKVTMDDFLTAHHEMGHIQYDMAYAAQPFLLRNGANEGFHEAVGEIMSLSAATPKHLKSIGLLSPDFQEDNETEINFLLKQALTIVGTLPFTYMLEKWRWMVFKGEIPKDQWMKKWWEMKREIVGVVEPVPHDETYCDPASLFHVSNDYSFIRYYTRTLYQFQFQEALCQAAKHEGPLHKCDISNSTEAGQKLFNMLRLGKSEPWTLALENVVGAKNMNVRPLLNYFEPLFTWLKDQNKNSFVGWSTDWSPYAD

B1: RBD of HCoV-NL63 (domain or fragment)
chain: QHTDINFTATASFGGSCYVCKPHQVNISLNGNTSVCVRTSHFSIRYIYNRVKSGSPGDSSWHIYLKSGTCPFSFSKLNNFQKFKTICFSTVEVPGSCNFPLEATWHYTSYTIVGALYVTWSEGNSITGVPYPVSGI
B1: binds.
